Laboratory results taken from publication PMC2186201.

Molecular target: human C3bi, bound to erythrocytes (EC3bi) (human) (UniProt P01024)
Assay: conglutinin-dependent hemagglutination

B1: bovine conglutinin (natural protein)
chain: AEMTTFSQKILANACTLVMCSPLESGLPGHDGQDGRECPHGEKGDPGSPGPAGRAGRPGWVGPIGPKGDNGFVGEPGPKGDTGPRGPPGMPGPAGREGPSGKQGSMGPPGTPGPKGETGPKGGVGAPGIQGFPGPSGLKGEKGAPGETGAPGRAGVTGPSGAIGPQGPSGARGPPGLKGDRGDPGETGAKGESGLAEVNALKQRVTILDGHLRRFQNAFSQYKKAVLFPDGQAVGEKIFKTAGAVKSYSDAEQLCREAKGQLASPRSSAENEAVTQMVRAQEKNAYLSMNDISTEGRFTYPTGEILVYSNWADGEPNNSDEGQPENCVEIFPDGKWNDVPCSKQLLVICEF
Binder B1 has a conglutination (percent of activity) of 100%.
